From a protein production outcome set (Wang et al. 2014)

Test: label from the status in PepcDB records

Sequence	protein production
MPGSPRGLCTRSRKSTMSTHGTIGVLGAGEVGQAVADKAVRHGHEVLIGNSRGPRTLEALVGRLGPKARAVTAEEAVQPELVFLSVPFFAVPELTGLTTWAGKIVVDTTNQFAAANPWRGRYDVGDLTGSEWVARHLPGARLVKALNTLFATFIAADPRHAEGRQVAFYAGDDADAKTAVAGLLDEFGFAALDLGGLRDGGRLMQLDGALSAKHLLLQDVG	failed
MPGVLVTGGTGKTGKVLVQVLRNAGVQARVASRNPAAADPDPIRFDWNDPTTYGPALDGMDRVFLLPPVESVDPLPLVEPFLRRAQRAGVQRLVMLGSAIVLPNAPSAVEMAAQVQAQPGGVVLRASGFMQNFLRPHPLAEHIHRLGEIRTAAGDGRLGWVDARDIAASAAALLADLEVDARSDYLITGPHGMSYPQAAQIITAQTGRRVRVERITEEEQAAAHRASGMPPAFADALAAVERGIKEGREDQVSTAVLELTGRPPRTFAEFVSDHAYEWTQ	failed
MPGWHALTKPARFRYPEGLHGREIRVEFIDNIRYKKIKNAVGRAVADFGLIRDGDRIAVAVSGGKDSYTLLHILEGLRRRAPVKYELVAVTIDSGYPGFRSDVIASYLREQGFAHHLETTDHYDIIREKRRPGSSYCSICARLKRGVLYTLAQKLGCNKLALGHHLDDFVETLLLNQFFVGTLKAMAPRMLADNGETTVIRPLVYVEEREIIPFARENRFPVVCCSCPVCGTADLQRRRMKKLLTELEKENPAVKRSLLRALGNVQPRYLLDLELQRLCDVP	failed
MPHLRFRAVEAHIVESLVPTLLNELSSLLSTARNAFTFELINTQYFAEGGVYPMVEVLWFGREQQTQDQIAQVITDQIRQLLGADSHLAVVFIPLQRTAYYLDGQHF	not failed
MPHLVIEATANLRLETSPGELLEQANAALFASGQFGEADIKSRFVTLEAYRQGTAAVERAYLHACLSILDGRDAATRQALGESLCEVLAGAVAGGGEEGVQVSVEVREMERASYAKRVVARQR	not failed
MPHNLFSLFSQPLKPPLFEPGEPRFWDDPHISKSMLEAHLNQTHDGASRRNAEIEKTIRHLITSGFLKTGDQVLDLGCGPGLYSSKLCFEGMKVTGIDLSRRSIDYARAQAERDGQNIDYIYTDFFNIDYKETFDAVLQVYGEICTFSDEKRDLLLNLVHRALKDNGIFIFDVSTRELRMREGLKNRWYFSEGGFWRPGKHLVLEEGFDYPENDTWLNQYIIVDEDGTVKVYRLWLHDYSFETISQTLENNGFRVEKAWNNLSGELYQKGGDWIAIAAKKV	failed
MPHRKNTFSSWRSRLAQKAVHAGWAWVQRTGSVTAAHPGRFRFGALGTGTRLAFPLGTVFGEPWIQVGAHCIIGEQVTLTAGLMPDLDLGPEPILRIGDGVVLGRGSHVIADTTVTIGSDCYFGPYVYVTSTNHSYDDPHQPIGKQWPRMDPVEIGPGCWIGTGAVILPGARIGRNVVVAAGAVVRGAVPDHAVVAGAPARVVRRWTPAEGWQPPLRTPAPVPIPDGITPGQLRELSKLDDEAVARLAELDDPERAAGRLAEPAAEG	failed
MPIDEWLVLNRIGIFENPSLRRYVSPFPPPELMGITSGLQSETGFAAHGADIYAALALASTIPITEYRHILDFGCGCGRLARMLKGHPHKISGCDIDLRHVKWIGQSLDFMNVKLSSVRPPIPFADDEMDAVISVSIFTHLTENSQDDFLAELFRVTRPGGTLFLTVHGAQALKRACHEQPIRHMLDMDEGRFRKAQQAFNQNKHGFVLQFGHLTTKPEKAFYTPRAIFRRIRDSFSRKTINMPFEYGIAFHPESYIREHWSKWFDILDYRHGAIHQFQDIVVLSPKK	failed
MPIGSAMSRIATSSPGHDALSDRERAVAEKFAAGLTYREIGEALFIAPSTVRTHLASIYDKLGVRNKVALASHINGAIGAGMDGPPRLPGASPVLAIFPIECQTSEERWRRFADGLSSDITIDLARYADLPVIAFHTMKSLGSKPADFAADGKALGATYVVSGQLRADERRVRLSIELADADNGVSLWSERYDRQVEDIFALQDSLTETVINVIAGSYGALATVGRKAIRRKPPASLRAYDCYLLGVEQQDTFSRAGIAEAIRLFSRALELDPTLVRAWTALAYAYSIEGANGFGDDAQVSIENWRTAVENAILLDPMDSVACNCLGDLRGCLGDLEGAERAYRRAFEYGSNHADTLAMLAGSKALVAGDPAEAMPLIERAMHLNPLAPPWYFGMLGRILFTLGRHREAIAALCRSTLNSPNVLLFLALAHTSVGEAAEAARIEARLKTEFADFSVERFITCYPVTNPDAVHAIRHAAQQLARRD	failed
MPIIELVILLACLVLLSNVLSHYLVAIPVSLIQVGLGLGVALLLNVQVKLQTDWFMLVFIAPMLYNDGREFPKQELWELRGAIFANAIVLVFITTILGGFLIHVLIPTIPLAVGIALAAILSPTDPIAVQSISEGVKLPKEILHLVSGESLINDASGLIGFKYALAAAVTGTFVLGEAVGDFFYISLVGLAVGLALITIIQLIRDVLRREGINDIVFNVVLQILTPFAIYFIAEEWFHASGVVAVVAAGVLSHLQNSHESEDAPELRLVTERVWNVVVYLLNGIVFLILGIELPAATQATIKGAHTNTFHAVFDVLIVWGILLLIRVAWTYAYMLFNWLRHHKKAKPSLRIAALSGLSGVRGAITMAGVFTIPTVVASGKAFPERALVLFIAAGVIIVSLVAAAAILPLMAAKSLPFVTRGSSPDEDDAVLAEGTDDGDDSSGQLPQLTYKQARIYILQLAIQNIEEHRRPANQRAAYDLILDQQFQIRRLEVASQTADELAPMLTDELELRLVALNGERAAVREMIANKQTSKLAGQVYLRRVDRREQRFLQATHRQGLPTLRSLRLLLTRAMQGIRLWLAPGDSEELRVALLDIQREASKAAIKALSQYLKQANVDEQQFDRQALYHLIVHYRNRIENAKNDHTLSRDDYEQQLHGLRIKSLGAERAGVQHLLESGQISLRTAAKLRQFINYSENLLMLNDIEADED	failed
MPIIKTLTKATKLEKEKFTIPKSVQDAIPIQRIWPDGIFQVGSRFSKTFSFTDINYSIASKDDKTAMFLDYSELLNALDSGASAKITIHNRRIDKAQFEKSLLLPMREDGLDHFRREYNEMLLSKVTGTNNSVVQDRYITITVAKRNIDEARTYFSRVGTDLINHLSQLSSVGRELDAAARLQLFRDFFKGSEPAAFAFDLREHMKKGHSFKDWLCPDSMEFQKDHFRIDERWGRVLYLQDYATYIKDSMIAELCDMDRSLMLAIDVLPVPTDEAVREIQNKLLGVETNAANWQRKQNAANNFSAVLPYDMEQQRKETKEMLDDLTNRDQRMMFGLVTLVHLADTKEQLDSDTETILTVARKHLCQMSTLRWQQKDGLDTVLPYGLRKIHALRTLTTESTAVLIPFRAQEILQGGGIYYGQNAVSKNMIVADRRKLLNGNSFRLGVSGSGKSFSAKEEIVSIALSTDDDILILDPESEFGFLTEALGGEVIRVSASSDTHINALDMDKAYGDERNPLIEKSEFILSLFEQLVGAGGVSAKEKSILDRCTYDVYREYMANNYQGEVPTLKDLYQSLLKQPEPEARGLALSSELFITGSLNTFAQPTNVDTKARIIAYDIRELGEQLMPIGMLVTLDAIFNRVIQNWKKGKTTWVFADEFYLLFRYQYSADFFYKLWKRIRKYNGLVTGLTQNVEELLRSDTARLMLANSEFLILLNQSPTDRDELAGLLHISDTQLGYITNVSAGCGLIRCAGNIVPFENSFPRNTRLYQLMTTKPDEALRGVLEHHHHHH	failed
MPILTISGSPSAPSRSARLLGHVRAQLERAGESADHLDLRALPADALLGAQTAHPAIAEALARVAAAGVVILATPVYQAAYSGLLKTFLDLLPQSGLRDKVVLPIATGGSLAHTLAIDYALRPVLSSLAARVILPGIFAADAQIGAADDGFAVDPALQQRLDDGIERVHQAIALARHPAVAQVIVASRRTVRSAFQAHANAQATDAQQRMRCPA	failed
MPINQPSGQIKLTNVSLVRLKKARKRFEVACYQNKVQDYRKGIEKDLDEVLQIHQVFMNVSKGLVANKEDLQKCFGTTNVDDVIEEIMHKGEIQLSEKERQLMLNKVNNEMLTIVSAKCINPVSKKRYPPTMIHKALQELKFSPVINKPAKLQALEAIKLLVSKQIIPIVRAKMKVKVAISEPSRQPELIEKISKLIASSPGESTKPELDPWTCTGLIDPVNYRDLMTLCDKKGTVQVLDMAVIDNTTHN	failed
MPINTPENISDNTSETSPELLHFNQLNLPPALLTRLDEIGYQQMTPVQSLSLPVILNNTDAVVRADTGSGKTTAFALTLLAKLEAKSFSPQALVLCPTRELAHQVADEVRKLAKSMLNIKILTLCGGEPSRIQTNSLEHGAHVLVGTPGRVLDHLEQRNVDLSMLTTLVLDEADRMLEMGFQDSLNAIVKHIPKTRQTLLFSATYPKNIAALAEQVTTKARNIEAIQEQAKPQIEQLFYAMNNEDSAQLVMNLLGDHQPENCLVFCNTKNEVKDIFNTLRANKFSVLALHGELEQKDRDQAIIQFSNGSARVLIATDVASRGLDIAELDLVISVNMAHDLDTHTHRIGRTGRAGKEGVAITLIAEKDDYKMRLLEDTFAEPIQVKPAPALSNNRPLKANMSTIQVSGGKKDKLRPGDIVGALTKDNVLSADDIGKIKLESTFGFVAVNSRLAKHALGLINNNKIKGKKFRAKVL	failed
MPIRGFHYRGDEAIYPASVVKLFYLVAALEWLQQGMIQPSAELDRALRDMIVDSSNDATGYIVDLLSGTTSGPELGDGPFKTWQFQRNIVNRYYQSLMWPELQPINVNQKTWGDGPYGRERAFYGPEFENRNKLTTNATARLLHAIAGGVAVSPSASQRMLNLLNRPFDPRSLAEDPENQVTGFLGQDLPQGSQLWSKAGWMSRVRHDAAYLEIPGLPPHLLVAFTEGKEHANNEAILPFIAQQVRQQLQPALEHHHHHH	failed
MPITSSSETFASFFNDWLCRHRQFVQQLAHLADETTIVTPIEEESLVSNFLSHYLQYYEEKSVAMSVAGDDIYDFFSPPWLSSYEKLILWIGGFKPGMVFKLITTSVNDLTSHQIDQLESIRLETKRRERDLMRRFALLQQSVGDPLLMVPFRRIGVLRLGEGEQPEMEDAMEVLKVEMIKAMKNADQLRCVTVGKVVEVLNPRQSIKLLRAAGEFYLRLRDLGV	failed
MPKERVDVLAYKQGLFNTREQAKRGVMAGLVVNVINGERYDKPGEKIDEATELKLKGDKLKYVSRGGLKLEKALKVFVISVDGQITLDIGASTGGFTDVMLQNGAQLVYAVDVGTNQLVWKLRQDERVCSMEQYNFRYAEPSDFERGQPTFASIDVSFISLNLILPALSKILTDGGQVVALIKPQFEAGREQIGKHGIVKDKSVHETVLETVTTFATNYGFTVKELDFSPIQGGHGNIEFLAYLEKSAQAQNQVLTKIKSIVEQAHKEFKKNEET	not failed
MPKKPLIDQLHHEDSWRLFRILAEFVEGFETLSELQVPLVSVFGSARFGEGHPAYEAGYRLGRALAEAGFGVVTGGGPGVMEAVNRGAYEAGGVSVGLNIELPHEQKPNPYQTHALSLRYFFVRKVLFVRYAVGFVFLPGGFGTLDELSEVLVLLQTEKVHRFPVFLLDRGYWEGLVRWLAFLRDQKAVGPEDLQLFRLTDEPEEVVQALKAEAPPR	not failed
MPKLPLLLSFPLLFFASFAYADEDFVTCYSVLKFINANDGSRLHSHDVKYGSGSGQQSVTAVKNSDDINSHWQIFPALNAKCNRGDAIKCGDKIRLKHLTTGTFLHSHHFTAPLSKQHQEVSAFGSEAESDTGDDWTVICNGDEWLESEQFKLRHAVTGSYLSLSGQQFGRPIHGQREVVGTDSITGGSAWKVAEGIYIKHQQKDL	not failed
MPKLSLIIATFNDAIGLARCLDSIEQQTVRADCEVLVFDNASSDGTVELLQGWSDRLTYWESERDRGIYHAWNKAIARASGDYVAFVGADDYYASPTALQQLLELTVGQPDLVSGRNAYYSPEGKFLRTWGYAWDWQRMRESMILSHPGLLMRRSLFDRIGLFDERFRICGDYDWLLRLPPDLKAVHTNQVILCLSMGGLSNTRISRVFAETFQAQRRQPDLGRWRSGVYWLINWLKFGRRKLIGLA	failed
